Experiment: soluble on expression in E. coli; label from the status in PepcDB or PDB records
In the case of “MSLKIEPCLPMKILIVEDDPLMQLGLEQALGAHERFEIIGRVDNGYGAVQQAAVLNPDLIVMDIGLPGLDGIEATKQIKQTSPQIHIVVLTSHTLPNEIIAALSSGADAYCVKGATLERLILAIAAAQDGATYLDPQIARVVVENLKPPVPEGQADVSSLSEREIDVLKLIVEGKSNQEIAQTLYLSTNTIKTHVRGIMNKLSVDDRVQAAVIALRSGLVEGHHHHHH”, the “soluble on expression in E. coli” value is reported as “soluble”.
In the case of “SDLVGVASPEPGTAAAWGPSKCPWAIPQNTISCSLADVMSEQLAKELQLEEEAAVFPEVAVAEGPFITGENIDTSSDLMLAQMLQMEYDREYDAQLRREEKKFNGDSKVSISFENYRKVHPYEDSDSSEDEVDWQDTRDDPYRPAKPVPTPKKGFIGKGKDITTKHDEVVCGRKNTARMENFAPEFQVGDGIGMDLKLSNHVFNALKQHAYSEERRSARLHEKKEHSTAEKAVDPKTRLLMYKMVNSGMLETITGCISTGKESVVFHAYGGSMEDEKEDSKVIPTECAIKVFKTTLNEFKNRDKYIKDDFRFKDRFSKLNPRKIIRMWAEKEMHNLARMQRAGIPCPTVVLLKKHILVMSFIGHDQVPAPKLKEVKLNSEEMKEAYYQTLHLMRQLYHECTLVHADLSEYNMLWHAGKVWLIDVSQSVEPTHPHGLEFLFRDCRNVSQKGGVKEALSERELFNAVSGLNITADNEADFLAEIEALEKMNEDHVQKNGRKAASFLKDDGDPPLLYDE”, the “soluble on expression in E. coli” value is reported as “soluble”.
With “SMGRRCQAQVSRRISFSASHRLYSKFLSDEENLKLFGKCNNPNGHGHNYKVVVTVHGEIDPATGMVMNLADLKKYMEEAIMQPLDHKNLDMDVPYFADVVSTTENVAVYIWDNLQKVLPVGVLYKVKVYETDNNIVVYKGE” the “soluble on expression in E. coli” value was “soluble”.
In the case of “SLPVINGAHVISMKNYTLVSDAYGEKGVKKVYEDEYLICENLKSFNKNLHPNFNFACFCLFDGHNGKNTAMFLKRNLAQELSNSFLEMQNTYDSSLPIPDHFIKISVNNTCKRIDERIAQEYPNSRDGATCVIVLIKDEYAYIINIGDSCAYLCRYLNNSNQAIELVDIHKPWVITEKERIIKHGGTIENGRVNDIIDVTRSFGDLSLKKYGLLCTGTFKKFKINSDDNFIILGTDGFFGSVDINYVINEITNLSKKEERLVNVEKKKTVFDAKSICNIMVEHAIVDKKSQDNVTVVLIKFLHKKGNSSTTTTTTEIRLLTKPERKLSWLLPPLSNN”, the “soluble on expression in E. coli” value is reported as “soluble”.
For “MAHHHHHHMSEALTPPDSWSHGHPDVNAELKLLRGAVAQALVEARQSSDFCRRIQHDISEYFQSEQRRRVQSGDSIESEQFIPNVMASVDGHLAEFESFIIGRVREELENKVDKDLSEKFDSYRMQLEHLRQQEEEQEARLRFILEDAVKMNCELRNEMKWCASELWDRVSAMEEKLKFMATRTHTNAGGKDVMDLGLPNALREVIGILTLLSEGLEVERELHNEERQRWMSLMSRAVEKIRLLGERDEALEANLQELRQVAAAIQHRFGEFSGFVVDFWHRLEMMGSPSVAVEDAACEGSLSMYSKAGICAKKQMDDFMKELHEVGVALRALQVEHVGFKDILDSNTVNITEIRRNVEALAVGAKLIAEERERIDREESSLDLQYLIRSTPRDGNECEGSTGTPRRGNLSLRKQWQVAHLPTLELLHGKICNIPISHAFRLWAAWASGRRQLRRDKTMVHEPQEDPDTNSLGSRK”, the “soluble on expression in E. coli” value was “not soluble”.
In the case of “GPGSMTTSGALFPSLVPGSRGASNKYLVEFRAGKMSLKGTTVTPDKRKGLVYIQQTDDSLIHFCWKDRTSGNVEDDLIIFPDDCEFKRVPQCPSGRVYVLKFKAGSKRLFFWMQEPKTDQDEEHCRKVNEYLNNPPMPGALGASGSSGHELSALGGEGGLQSLLGNMSHSQLMQLIGPAGLGGLGGLGALTGPGLASLLGSSGPPGSSSSSSSRSQSAAVTPSSTTSSTRATPAPSAPAAASATSPSPAPSSGNGASTAASPTQPIQLSDLQSILATMNVPAGPAGGQQVDLASVLTPEIMAPILANADVQERLLPYLPSGESLPQTADEIQNTLTSPQFQQALGMFSAALASGQLGPLMCQFGLPAEAVEAANKGDVEAFAKAMQNNAKPEQKEGDTKDKKDEEEDMSLD”, the “soluble on expression in E. coli” value is reported as “soluble”.
In the case of “MGSDKIHHHHHHMINNEKYKELIKYLKSLGKVVLAFSGGVDSTFLLKASKEALGDNVKAVTILSPYIPKWEIREAEELVKELGVEHEIIKAPIIDSIKFNPEDRCYLCKTAVFSMILDAAKRQGYDCVIDGTNFDDIKDYRPGLRALKELSVKSPLLECKLTKAEIRTFSKELGLKTWDKPPYACLLTRIPYGNELKVEDFEKIERAERYMMSIGFRAIRVRCHDDLARIEVAREDRSKLFNEELLDTISENIKKCGFKYVSLDLQGYRVGSFNETIAKISDK”, the “soluble on expression in E. coli” value is reported as “not soluble”.
In the case of “GSSGSSGGYFDAHALAMDYRSLGFRECLAEVARYLSIIEGLDASDPLRVRLVSHLNNYASQREASGPSSG”, the “soluble on expression in E. coli” value is reported as “soluble”.
In the case of “MAHHHHHHMRPYKRVLIKLSGGALADQTGNSFNSKRLEHIANEILSIVDLGIEVSIVIGGGNIFRGHLAEEWGIDRVEADNIGTLGTIINSLMLRGVLTSKTNKEVRVMTSIPFNAVAEPYIRLRAVHHLDNGYIVIFGGGNGQPFVTTDYPSVQRAIEMNSDAILVAKQGVDGVFTSDPKHNKSAKMYRKLNYNDVVRQNIQVMDQAALLLARDYNLPAHVFNFDEPGVMRRICLGEHVGTLINDDASLLVHEK”, the “soluble on expression in E. coli” value is reported as “soluble”.
In the case of “MGLYAISDLHLAFNLDKPMNIFGEEWSKHDEKIKKNWISKISEEDTVLIAGDISWSMDIENGEEDLNWIDCLPGKKIICKGNHDYWWKSITKLNNMYKSISFLQNNFFEYKDYAICGTRGWIDKSFDSFDEHDKKVYKREIIRLRLSLDAAVKKGYSKFIVMFHYPPFKDENSGSEFTEVLEEYKVEKAIYGHLHGPALKNISGSIVKNGVEYMLTSCDYIEFNPIKIDLKLEHHHHHH”, the “soluble on expression in E. coli” value is reported as “soluble”.
For “MSLTVSPLSGSLTPIGSEVKRGAELAVQEQAAAFKALGYDLVLTPYDDQASATLAPQIARTIVADKNVLGVVGALNSSVSNVIAQAFGPAKLAMISPASTGDQLTQNGWNHFSRVVAPDSAQGVAAADYIAEELKAGSVVVISDNTAYGNGLTRVLMANLKKRKVPVAAYMGASTPAQIAEAVKRVKASSADVVYFGGTDDTGSQLVKALRAAGVTATFMGGDGLDSPSFLQRAGIAGAGVVYSTVFGPVSAFSNALDFSDRYRAAYKTKPSGVAVYAYDATNTLLSAIKAAAGNSRTLPTRAEVSAAVRKVNLPACFSADKSRCATITGAIAFSDSGERLRSRVMIMRFDDVLQPQVAKVQTVNAESLKEGHHHHHH”, the “soluble on expression in E. coli” value was “soluble”.
In the case of “MNKKIVMSFLAATVVTISGCASFADMAGADSATLNASAAQGFSKMTTEARQKGQLDTSSNTYRRINTVMQRMIPYANQMNQTGQPFQWQLAVIKSDTVNAYVAPGGKVVFYTGIVNKLNLSDAEIAAVMGHEMTHALEEHAKSKIGAEALTGLALNIGKAYAGDSIGQAGSAALDLGSQVGVGLPYSRNLESRADYGGLMLMAKAGYNPQAAITLWEKMNRMDGAGGPSFLSTHPSNNQRIQDMRKNLPAAMAVYNNRRLEHHHHHH”, the “soluble on expression in E. coli” value is reported as “not soluble”.
For “MGSDKIHHHHHHMTEGKSMFVGFDYGSANCAIGVMIDDAVSLLPLSTHSDFMPSTLYAMDRELIAEAVYQGLPEHLKAEYSHLRSSQLMRAKLMRHELDLSPNEQAVFVGQAAIDAYLDMPEEGFYVRSPKSFLGANGLRVEQIALFEDIVTLMMQHVKTLADKALNAKSLSSASHAVIGRPVNFQGIGGEDSNQQAETILRLAATRSGFTDVRFLFEPLAAGMDFESNLSDDNTVLVVDVGGGTTDCSVVKMGPSYIKQQDRSPDCFGHSGQRIGGNDLDIALAMTGLMPSFGADTLMINGKPMPRTPFWNAVAVNDISAQRDFVSLPSRKLVEQLIKEAQQPELLVRLQKVQKNQMSYQVVREAEAAKISLSDNDTIQCSLDFIEKGLLVPLTAAQFEQAINDPLAKVEALMKQAMQTATAKAEQQDCDMPTTPDIVYVTGGTARSPAIYNKIASVYPNAKVVVGDHFGSVTAGLTRCAEKCL”, the “soluble on expression in E. coli” value was “not soluble”.
For “MGSDKIHHHHHHVAQDVITQAPLGFGLGLRTQHFDAVLNTEPDIDWFEVLSENYMVAGGKPRYYLKEIGERYPLVMHGVSLSIGSTDPLNMDYLKALKQLANDVQPQWISDHICWTSIHGVNSHDLLPLPYTEETVKHVAQRIKTVQDFLGRRILMENVSSYLSYQDSSMDEWEFVNAVAEAADCLILLDINNIYVSARNHNFNPLDYLNKINPKRVQQFHLAGHSDYGDYVIDTHDHDVPSCVWDLYCAALKRFGGISTMIERDANIPEFYALEAELTIARNIARDTLGKAHPLNAAKNRKNMHEGKVIA”, the “soluble on expression in E. coli” value was “not soluble”.
With “MSLAFVPHVPRHSRGDNPPSASTASPAVLTLTGERTIPDLDIENYWFRRHQVVYQRLAPRCTARDVLEAGCGEGYGADLIACVARQVIAVDYDETAVAHVRSRYPRVEVMQANLAELPLPDASVDVVVNFQVIEHLWDQARFVRECARVLRGSGLLMVSTPNRITFSPGRDTPINPFHTRELNADELTSLLIDAGFVDVAMCGLFHGPRLRDMDARHGGSIIDAQIMRAVAGEGHHHHHH” the “soluble on expression in E. coli” value was “not soluble”.
For “MGSDKIHHHHHHMYNVMNCIIVDDEPLAREAMKLLIEEAECLQLVGSFNSAATASDFMEQHVVDLVFLDIQMPGITGIEFARTISKRTLVIFTTAYTEYALDSYEVDAIDYLIKPVEAERFQKAVEKAQSYHSLLLQEEKEAIETIVAAEYFFVKAERRYFKVNFSDILFVEGLKDYVILQLGEQRIITRMSLKAVFDLLPKDSFLRVNKSYIVNTAHIDSFDNNDIFIKSYEIAIGNSYRDDFFEGFVMKQQRW”, the “soluble on expression in E. coli” value was “not soluble”.
For “MGSDKIHHHHHHLGFKIEAELLQAMKDLKDSVPASGSERVRNEFIQILLSELPSQGIRRLLELGLLERLIPELMPAIGFDTRSSYHDKDVFEHSLAVLDNTEPNLTLRLAALLHDIDKPNSLTVDEDGEGYCYGHASGGSEIARTILGRLNFDRKTIKAVSAIIKEHMNDFENISELSIKRLIRRVGPDNIDRLFELQLADIKGSKLSSRSPERITKTRNKCFEVLSRREPLTVHDLDISGYDLFSLGYPPGKEIGEAMDYLLDQVINNPSLNQRDTLIALLMNQ”, the “soluble on expression in E. coli” value was “not soluble”.
For “MAHHHHHHMLRKTNLFLFAASRALMSGGSSHGPTPYQDKSYPVQPHNLNELQQPPDSWRKSPIMSKLMDQSLPVYDDVVTGVGRLYWQEPARVWHLFEADDTLMLEEHDREEWNDRPYVAVNHLYEPPIGSEERPIRVEGTGNPGDQQIVLCFGNCAPHVPQSNYYMMMKGYSKTKCPMCQQWFYVHNRPWLVMHPDWTDEPAADEGPAYTFAEIEAEFDRDFHEFGVYLNAE”, the “soluble on expression in E. coli” value was “not soluble”.
In the case of “GPGSMLRSEVLDAEVAKSVEAYSTAVTPFVERRSGLYLTKFEVARIIGERAKQIASGAAMSLPGTGSGLDSVETAERCTNPRSLAVDPVMMAKYDLLQRKIRMLVRRVWPDGAVETIPVNELMVDVTMLDLQY”, the “soluble on expression in E. coli” value is reported as “soluble”.
With “MAHHHHHHMSVPDLTAEELAYYASLRLEDPDEAALATFLADLEQVHEDHPSDTGAAPSSTVASASGKRGALLTSSRVPACERLDSSDVEGVPPQRRVASVDRQQPSAYAATGLAIRQISAKLFPAPRSATTDSGTRYGVTQVLEKDNLVGGVAGIADAALQTRCVELPARQLTSIAPVQCFLNATHVYLQHNALADLEGVELLSQLQVLVVHHNQLTSLAPLQQLECLSYLDVSHNNVSSSVDVLLRDELPCPSLKSLNLSNNPCWSRCGEAVSDGDGGERHRAYVQQICTACPLLERLDDVVVDDGEEVMQHSDNSTESDVKDVAERRSASAAGAAPSQAGGITVRRVHNSVEAARAASSRACVHDIHTRSSLAPPGSLVSGEAELSARPPRSAQVNKARLLEEEQARLVHQLFLRRAVGTAPGSAKAVDTVSTSPLHSNRSSTGSGHFHPGDAATEAPTEQKANQPADSTGDVSALYSTRGDILHLYHSLQFTQEVSQARLQRDVAAHWDDVSRVLQTVQALQQDRRRRIQQRLQEQTSAYTDSLIMLEKESFTKDLDRYRNSDGSRRAAPAGIHAAASAPAAPPAVDTPNGITAVAHTSAAVDGNCASKASSTSTHPPEKPKGKTKKGPSVPKPPPRR” the “soluble on expression in E. coli” value was “not soluble”.

From the DeepSol protein solubility set
